Results taken from patent publication US20030108554A1 (published 2003).

Target: T1, GIP130c (human, UniProt Q4L180 1-1128)
T1 construct: Full length; tested as GAL4 domain fusion in yeast two-hybrid
T1 sequence: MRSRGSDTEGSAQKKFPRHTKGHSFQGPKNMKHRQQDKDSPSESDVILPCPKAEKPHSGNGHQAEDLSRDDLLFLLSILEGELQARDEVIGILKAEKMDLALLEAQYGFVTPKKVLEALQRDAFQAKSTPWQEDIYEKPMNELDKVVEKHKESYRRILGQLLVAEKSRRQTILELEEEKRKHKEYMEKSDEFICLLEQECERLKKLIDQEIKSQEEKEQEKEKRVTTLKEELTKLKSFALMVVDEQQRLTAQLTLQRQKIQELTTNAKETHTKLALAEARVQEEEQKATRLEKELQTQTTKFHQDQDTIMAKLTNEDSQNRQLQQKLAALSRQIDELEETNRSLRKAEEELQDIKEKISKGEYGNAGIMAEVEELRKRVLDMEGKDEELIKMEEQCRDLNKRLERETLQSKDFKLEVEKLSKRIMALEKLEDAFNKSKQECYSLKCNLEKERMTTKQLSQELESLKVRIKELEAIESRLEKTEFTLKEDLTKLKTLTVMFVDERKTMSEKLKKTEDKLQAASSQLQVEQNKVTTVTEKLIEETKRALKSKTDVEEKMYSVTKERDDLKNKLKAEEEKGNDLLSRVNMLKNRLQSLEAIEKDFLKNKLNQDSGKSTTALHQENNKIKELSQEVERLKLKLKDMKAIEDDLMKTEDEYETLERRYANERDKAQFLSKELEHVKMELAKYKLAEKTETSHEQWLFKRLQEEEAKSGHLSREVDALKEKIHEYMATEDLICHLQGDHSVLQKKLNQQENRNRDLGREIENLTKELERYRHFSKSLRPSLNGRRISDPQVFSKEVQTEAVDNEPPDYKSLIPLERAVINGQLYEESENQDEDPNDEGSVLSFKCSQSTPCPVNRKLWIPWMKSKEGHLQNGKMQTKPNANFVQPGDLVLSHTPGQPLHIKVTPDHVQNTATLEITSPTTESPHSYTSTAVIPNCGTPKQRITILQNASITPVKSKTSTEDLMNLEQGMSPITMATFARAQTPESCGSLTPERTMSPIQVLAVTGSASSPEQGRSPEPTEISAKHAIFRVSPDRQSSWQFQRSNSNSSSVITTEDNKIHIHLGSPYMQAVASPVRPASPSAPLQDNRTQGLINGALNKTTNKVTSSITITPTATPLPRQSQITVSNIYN
Assay: yeast two-hybrid and three-hybrid (conclusion)
Method: Accordingly, we have observed with a yeast three-hybrid system that GPBP expression efficiently impairs both I-20 and GIP90 aggregation, and that I-20 and GIP90 efficiently impair GPBP aggregation.
Deletion mutants were obtained using specific primers and PCR, followed by cloning of the resulting cDNAs in the pGBT9 and pGAD424 vectors. The assays were performed in SFY526 or HF7c Saccharomyces cerevisiae strains, with pGBT9 as GAL4 binding domain vector and pGAD424 as GAL4 activation domain vector, by the lift colony assay procedure. Briefly, the yeast cells were co-transformed with constructs of both binding domain and activation domain vectors, and the co-transformants were selected in medium deficient in both tryptophan and leucine. After five days of incubation at 30° C. the colonies were tested for the expression of β-galactosidase with X-Gal substrate (0.75 mg/ml). […] When the assays were performed with the HF7c strain, the interactions were assessed by the lift colony assay procedure and by growth in medium deficient in histidine, tryptophan and leucine. For yeast three-hybrid system, we used the pBRIDGE vector, which allows the conditional expression of a third protein apart from the usual GAL4 binding and activation domain-fusion proteins of the two-hybrid system. In this case, the expression of GPBP or I-20 or GIP90 was driven by Met25 promoter, active in absence of methionine. In these experiments, the transformed SFY526 cells were plated in medium deficient in tryptophan, leucine and methionine, and subjected to the colony lift assay after five days at 30° C. In the case of the strain HF7c the colonies grown in the cited plates were streaked on medium with the additional deficiency of histidine.

binding result: binds
B1: Goodpasture antigen binding protein (GPBP) (enzyme, UniProt Q9Y5P4 1-624, looked up)
chain: MSDNQSWNSSGSEEDPETESGPPVERCGVLSKWTNYIHGWQDRWVVLKNNALSYYKSEDETEYGCRGSICLSKAVITPHDFDECRFDISVNDSVWYLRAQDPDHRQQWIDAIEQHKTESGYGSESSLRRHGSMVSLVSGASGYSATSTSSFKKGHSLREKLAEMETFRDILCRQVDTLQKYFDACADAVSKDELQRDKVVEDDEDDFPTTRSDGDFLHSTNGNKEKLFPHVTPKGINGIDFKGEAITFKATTAGILATLSHCIELMVKREDSWQKRLDKETEKKRRTEEAYKNAMTELKKKSHFGGPDYEEGPNSLINEEEFFDAVEAALDRQDKIEEQSQSEKVRLHWPTSLPSGDAFSSVGTHRFVQKPYSRSSSMSSIDLVSASDDVHRFSSQVEEMVQNHMTYSLQDVGGDANWQLVVEEGEMKVYRREVEENGIVLDPLKATHAVKGVTGHEVCNYFWNVDVRNDWETTIENFHVVETLADNAIIIYQTHKRVWPASQRDVLYLSVIRKIPALTENDPETWIVCNFSVDHDSAPLNNRCVRAKINVAMICQTLVSPPEGNQEISRDNILCKITYVANVNPGGWAPASVLRAVAKREYPKFLKRFTSYVQEKTAGKPILF
notes: Protein kinase; Fusion parts are not written as pieces
